# Measured values taken from patent publication US20110262445A1 (CEPHALON AUSTRALIA, published 2011).
# Positions count from the first letter of the chain named.
# T1: human IL-23 (human, UniProt P29460 23-328; Q9NPF7 20-189)
# T1 construct: Recombinant (Ebioscience); HIS-tagged in flow cytometry, biotinylated in some assays; also called hIL-23; rhIL-23
# T1 sequence 1: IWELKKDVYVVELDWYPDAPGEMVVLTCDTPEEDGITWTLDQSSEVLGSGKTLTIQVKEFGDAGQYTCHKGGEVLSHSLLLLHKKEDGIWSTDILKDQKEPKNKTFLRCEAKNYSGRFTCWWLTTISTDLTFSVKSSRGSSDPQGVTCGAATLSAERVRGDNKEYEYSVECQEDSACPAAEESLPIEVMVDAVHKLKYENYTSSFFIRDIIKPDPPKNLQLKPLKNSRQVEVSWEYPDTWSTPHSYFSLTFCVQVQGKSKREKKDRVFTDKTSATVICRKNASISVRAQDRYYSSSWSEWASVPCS
# T1 sequence 2: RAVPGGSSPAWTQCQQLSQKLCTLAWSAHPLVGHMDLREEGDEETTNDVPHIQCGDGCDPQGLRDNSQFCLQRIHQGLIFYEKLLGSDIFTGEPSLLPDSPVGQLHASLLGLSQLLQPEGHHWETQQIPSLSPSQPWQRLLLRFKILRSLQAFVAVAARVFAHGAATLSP
# T2: human IL-12 (human, UniProt P29460 23-328; P29459 23-219)
# T2 construct: Recombinant (Peprotech); FLAG-tagged IL-12 in the flow cytometry assays, biotinylated in the IL-12Rβ2 assay; also called hIL-12
# T2 sequence 1: T1 sequence 1
# T2 sequence 2: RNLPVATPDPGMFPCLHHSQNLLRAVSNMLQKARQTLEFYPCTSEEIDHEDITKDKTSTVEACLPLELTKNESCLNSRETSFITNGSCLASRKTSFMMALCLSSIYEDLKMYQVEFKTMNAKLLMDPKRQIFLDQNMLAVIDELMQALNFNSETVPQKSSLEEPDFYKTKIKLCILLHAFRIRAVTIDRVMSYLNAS
# B1: Antibody 203 (antibody, human IgG1, kappa, V domains shown)
# VH: QVQLVQSGAEVKKPGASVKVSCKASGYTFTDYYLHWVRQAPGQGLEWMGWIDPENGDTEHAPKFQGRVTMTTDTSTSTAYMELRSLRSDDTAVYYCAANKELRYFDVWGQGTMVTVSS
# VL: EIVMTQSPATLSVSPGERATLSCRASQSISINLHWYQQKPGQAPRLLIYFASQSISGIPARFSGSGSGTEFTLTISSLQSEDFAVYYCQQSNSFPLTFGGGTKVEIKR
# B2: Antibody 191 (antibody, human IgG1, kappa, V domains shown)
# VH: B1 VH with H60Y
# VL: DIQMTQSPSSVSASVGDRVTITCRASQSISINLHWYQQKPGKAPKLLIYFASQSISGVPSRFSGSGSGTDFSLTINSLQTEDFATYYCQQSNSFPLTFGGGTKVEIKR
# B3: Antibody 204 (antibody, human IgG1, kappa, V domains shown)
# VH: B1 VH with K12E, H60Y, R67G
# VL: B1 VL
# notes: not the murine PMA204
# B4: Antibody 197 (antibody, human IgG1, kappa, V domains shown)
# VH: B1 VH with Q43R, H60Y
# VL: B2 VL
# B5: Antibody 196 (antibody, human IgG1, kappa, V domains shown)
# VH: B1 VH with K12E, H60Y, R67G
# VL: B2 VL
# B6: Antibody 175 (antibody, human IgG1, kappa, V domains shown)
# VH: EVQLVQSGAEVKKPGATVKISCKASGYAFSDYYLHWVRQAPEKGLEWMGWIDPENGDTEYAPKFQGRVTITADTSTDTGYLELSSLRSEDTAVYYCAANKELRYFDVWGQGTLVTVSS
# VL: B2 VL
# B7: Antibody 179 (antibody, human IgG1, kappa)
# heavy: not shown
# light: DIQMTQSPSSVSASVGDRVTITCRASQSISINLHWYQQKPGKAPKLLIYFASQSISGVPSRFSGSGSGTDFSLTINSLQTEDFATYYCQQSNSFPLTFGGGTKVEIKRTVAAPSVFIFPPSDEQLKSGTASVVCLLNNFYPREAKVQWKVDNALQSGNSQESVTEQDSKDSTYSLSSTLTLSKADYEKHKVYACEVTHQGLSSPVTKSFNRGEC
# B8: Antibody 5 (antibody, human IgG1, kappa, V domains shown)
# VH: EVQLQQSGADLVRSGASIKLSCTASGFNIKDYYMHWVKQRPEQGLEWIGWIDPENGDTEYAPKFQGKATMTADTSSNTAYLQLSSLTSEDTAVYYCNAAKELRYFDVWGAGTTVTVSS
# VL: DIVLTQSPATLSVTPGDSVSLSCRASQSISINLHWYQQKSHESPRLLIKFASQSISGIPSRFSGYGSGTDFTLSINSVETEDFGRYFCQQSNSWPLTFGAGTKLELKR
# B9: Antibody 10 (antibody, human IgG1, kappa, V domains shown)
# VH: B8 VH with A99Q
# VL: B8 VL
# B10: Antibody 9 (antibody, human IgG1, kappa, V domains shown)
# VH: B8 VH with A99E
# VL: B8 VL
# B11: Antibody 8 (antibody, human IgG1, kappa, V domains shown)
# VH: B8 VH with A99D
# VL: B8 VL
# B12: Antibody 12 (antibody, human IgG1, kappa, V domains shown)
# VH: B8 VH with A99H
# VL: B8 VL
# B13: Antibody 17 (antibody, human IgG1, kappa, V domains shown)
# VH: B8 VH with A99F
# VL: B8 VL
# B14: Antibody 20 (antibody, human IgG1, kappa, V domains shown)
# VH: B8 VH with A99T
# VL: B8 VL
# B15: Antibody 13 (antibody, human IgG1, kappa, V domains shown)
# VH: B8 VH with A99I
# VL: B8 VL
# B16: Antibody 19 (antibody, human IgG1, kappa, V domains shown)
# VH: B8 VH with A99S
# VL: B8 VL
# B17: Antibody 22 (antibody, human IgG1, kappa, V domains shown)
# VH: B8 VH with A99V
# VL: B8 VL
# B18: Antibody 18 (antibody, human IgG1, kappa, V domains shown)
# VH: B8 VH with A99P
# VL: B8 VL
# B19: Antibody 11 (antibody, human IgG1, kappa, V domains shown)
# VH: B8 VH with A99G
# VL: B8 VL
# Molecular target: T1, human IL-23
# Assay: ELISA, coated IL-23
# Experimental: (§1) IL-12 (Peprotech), IL-23 (Ebioscience™), IL-12p40 (Ebioscience™) or IL-12p80 (Peprotech), was diluted to 1 μg/mL in carbonate coating buffer ([…] pH 9.6) and coated onto a 96 well plate (Nunc™, Maxisorp™) overnight at 4° C. The plate was then washed three times with wash buffer (0.01M PBS pH 7.2, 0.05% Tween-20) and then three times with 0.01M PBS pH 7.2. The wells were then blocked by adding 200 μl of blocking buffer (1% w/v BSA in 0.01 M PBS pH 7.2) to each well and incubating the plate at 25° C. for 1 hour. The antibody was diluted in antibody diluent (1% w/v BSA, 0.05% Tween-20 in 0.01M PBS pH 7.2) sufficient to generate a titration curve. The wells were incubated with the antibody for 1 hour at 25° C. The plate was then washed as previously described. Goat anti-human immunoglobulin G (H+L) antibody HRP conjugate (Zymed®) at 1:2000 in antibody diluent was used to detect bound primary antibody. Goat anti-murine immunoglobulin antibody HRP conjugate (Dako) at 1:2000 in antibody diluent was used to detect bound murine antibody. After incubation at 25° C. for 1 hour the plate was washed again as previously described. TMB substrate solution (Zymed®) was added to each well and the colour allowed to develop; the reaction was terminated by adding 1M HCl to the wells. The absorbance of each well was determined at 450 nm (ref. 620 nm).
row,Binder,binding result
1,B1,binds
2,B2,binds
3,B3,binds
4,B4,binds
5,B5,binds
6,B6,binds
7,B7,binds

# Molecular target: T2, human IL-12
# Assay: ELISA, coated IL-12
# In short: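 Each value is an absorbance measuring binding. Plates (Maxisorp) carried cytokine coated at 1 μg/mL in carbonate buffer pH 9.6 overnight at 4° C, were blocked with 1% BSA in PBS for 1 hour at 25° C, and received antibody titrations for 1 hour at 25° C. Detection used goat anti-human IgG or anti-murine immunoglobulin HRP at 1:2000 for 1 hour, then TMB stopped with 1M HCl, with absorbance taken at 450 nm (reference 620 nm).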
row,Binder,binding result
1,B8,binds
2,B9,binds
3,B10,binds
4,B11,binds
5,B12,binds
6,B13,binds
7,B14,binds
8,B15,binds
9,B16,binds
10,B17,binds
11,B18,binds
12,B19,binds

# Molecular target: T2, human IL-12
# Assay: ELISA, coated IL-12
# Remark: another data set of the same source
# Experimental: as §1
row,Binder,binding result
1,B1,binds
2,B2,binds
3,B3,binds
4,B4,binds
5,B5,binds
6,B6,binds
7,B7,binds

# Molecular target: T1, human IL-23
# Assay: ELISA, coated IL-23
# Remark: another data set of the same source
# Experimental: This cysteine at the start of CDR3 could be oxidized, causing heterogeneity in any resulting antibody product. It could also form complexes by disulphide bond formation. Therefore, each of the other 18 (the exceptions being the original Cys and Trp) amino acids was substituted in this position using gene synthesis, and the antibodies were expressed transiently (Antibodies 5, 6, 7, 8, 9, 10, 11, 12, 13, 14, 15, 16, 17, 18, 19, 20, 21, 22). An ELISA was performed on these antibodies (FIG. 9). Some of the antibodies retained binding activity for both IL-12 and IL-23, others only for one cytokine or the other, while others minimally bound to either cytokine.
# as §1
row,Binder,binding result
1,B8,binds
2,B9,binds
3,B10,binds
4,B11,binds
5,B12,binds
6,B13,binds
7,B14,binds
8,B15,binds
9,B16,binds
10,B17,binds
11,B18,binds
12,B19,binds
